Measured values taken from patent publication US7063965 (Regeneron, dated 2006).

Columns and labels:
[1] = target: T1, rat TIE-2 receptorbody (entire extracellular portion of the rat TIE-2 receptor fused to human IgG1 Fc) (rat; human, UniProt A0ABK0L6J5 19-740); test: SPR (BIAcore), >50x concentrated conditioned medium over immobilised TIE-2 RB
T1 construct: extracellular domain; also called TIE-2 RB; r TIE-2 ecto/h IgG1 Fc; not shown: human immunoglobulin gamma-1 constant region (IgG1 Fc), from the hinge region to the carboxy-terminus
Protocol: Purified TIE-2 RB was covalently coupled through primary amines to the carboxymethyl dextran layer of a CM5 research grade sensor chip (Pharmacia Biosensor; Piscataway, N.J.). The sensor chip surface was activated using a mixture of N-hydroxysuccinimide (NHS) and N-ethyl-N'-(3-dimethylaminopropyl)carbodiimide (EDC), followed by immobilization of TIE-2 RB (25 µg/mL, pH 4.5) and deactivation of unreacted sites with 1.0 M ethanolamine (pH 8.5). A negative control surface of the EHK-1 receptorbody was prepared in a similar manner.
The running buffer used in the system was HBS (10 mM Hepes, 3.4 mM EDTA, 150 mM NaCl, 0.005% P20 surfactant, pH 7.4). […] Aliquots of 40 µL were injected across the immobilized surface (either TIE-2 or EHK-1) at a flow rate of 5 µL/min and the receptor binding was monitored for 8 min. The binding activity (resonance units, RU) was measured as the difference between a baseline value determined 30 s prior to the sample injection and a measurement taken at 30 s post-injection. […]
The instrument noise level is 20 RU; therefore, any binding activity with a signal above 20 RU may be interpreted as a real interaction with the receptor. […] For the same samples assayed on a EHK-1 RB immobilized surface, the measured activities were less than 35 RU. […]

[2] = target: T2, EHK-1 receptorbody (rEHK-1 ecto/hIgG1 Fc) (rat; human, UniProt P54757 27-575); test: SPR (BIAcore), conditioned medium preincubated with soluble receptorbody before injection over immobilised TIE-2 RB
T2 construct: extracellular domain; also called EHK-1 RB; soluble EHK-1 RB
T2 sequence (P54757 27-575): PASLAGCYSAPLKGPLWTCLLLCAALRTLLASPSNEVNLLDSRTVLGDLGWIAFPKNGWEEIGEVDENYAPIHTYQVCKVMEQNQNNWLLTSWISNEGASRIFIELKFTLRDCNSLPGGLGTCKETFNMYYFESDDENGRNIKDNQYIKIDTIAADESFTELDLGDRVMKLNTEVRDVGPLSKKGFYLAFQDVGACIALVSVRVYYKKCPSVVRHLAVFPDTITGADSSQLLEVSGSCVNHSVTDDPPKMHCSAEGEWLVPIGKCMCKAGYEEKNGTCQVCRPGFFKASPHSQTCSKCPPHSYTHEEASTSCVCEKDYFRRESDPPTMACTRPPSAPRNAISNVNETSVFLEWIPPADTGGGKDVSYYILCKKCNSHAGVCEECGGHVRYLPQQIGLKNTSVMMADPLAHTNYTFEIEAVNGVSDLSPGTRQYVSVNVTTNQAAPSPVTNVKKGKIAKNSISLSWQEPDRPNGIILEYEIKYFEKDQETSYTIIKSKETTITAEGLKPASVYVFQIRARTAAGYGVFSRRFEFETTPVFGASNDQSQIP

[3] = target: TIE-2 receptor on ABAE (Adult Bovine Arterial Endothelial) cells (bovine, UniProt Q06807 23-1125); test: cell-based or functional assay
TIE-2 receptor on ABAE (Adult Bovine Arterial Endothelial) cells, sequence (Q06807 23-1125): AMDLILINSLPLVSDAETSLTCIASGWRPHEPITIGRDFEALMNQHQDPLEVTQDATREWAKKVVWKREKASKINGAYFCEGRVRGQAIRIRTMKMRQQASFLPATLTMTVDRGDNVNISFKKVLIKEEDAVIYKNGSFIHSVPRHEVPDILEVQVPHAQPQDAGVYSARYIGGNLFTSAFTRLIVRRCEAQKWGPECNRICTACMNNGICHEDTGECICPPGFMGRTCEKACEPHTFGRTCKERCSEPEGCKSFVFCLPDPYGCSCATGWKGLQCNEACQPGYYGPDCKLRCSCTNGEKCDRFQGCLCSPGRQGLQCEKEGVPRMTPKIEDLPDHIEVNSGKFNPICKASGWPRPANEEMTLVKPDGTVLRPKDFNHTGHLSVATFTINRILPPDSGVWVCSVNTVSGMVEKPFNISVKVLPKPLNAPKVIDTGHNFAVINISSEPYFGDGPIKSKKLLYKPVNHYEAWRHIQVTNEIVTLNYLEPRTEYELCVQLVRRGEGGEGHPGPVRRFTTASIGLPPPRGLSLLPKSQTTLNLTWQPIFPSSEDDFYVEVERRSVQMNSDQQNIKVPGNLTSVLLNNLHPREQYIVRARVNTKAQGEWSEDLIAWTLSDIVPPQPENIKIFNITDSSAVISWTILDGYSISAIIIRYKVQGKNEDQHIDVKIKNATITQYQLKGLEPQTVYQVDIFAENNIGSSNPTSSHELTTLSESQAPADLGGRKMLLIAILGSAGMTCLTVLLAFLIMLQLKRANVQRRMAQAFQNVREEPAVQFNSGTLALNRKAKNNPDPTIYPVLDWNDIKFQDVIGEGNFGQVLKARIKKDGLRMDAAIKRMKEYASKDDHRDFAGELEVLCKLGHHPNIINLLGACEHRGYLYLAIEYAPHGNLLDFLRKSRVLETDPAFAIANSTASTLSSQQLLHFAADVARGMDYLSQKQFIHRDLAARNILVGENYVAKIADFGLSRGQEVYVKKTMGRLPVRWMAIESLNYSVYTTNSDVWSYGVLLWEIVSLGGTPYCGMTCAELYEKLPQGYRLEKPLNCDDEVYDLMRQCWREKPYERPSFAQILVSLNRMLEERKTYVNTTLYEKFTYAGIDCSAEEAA

B1: TIE-2 ligand in C2C12-ras conditioned medium (ligand, mouse, UniProt O08538 20-498, looked up)
chain: SNQRRNPENGGRRYNRIQHGQCAYTFILPEHDGNCRESATEQYNTNALQRDAPHVEPDFSSQKLQHLEHVMENYTQWLQKLENYIVENMKSEMAQIQQNAVQNHTATMLEIGTSLLSQTAEQTRKLTDVETQVLNQTSRLEIQLLENSLSTYKLEKQLLQQTNEILKIHEKNSLLEHKILEMEGKHKEELDTLKEEKENLQGLVSRQTFIIQELEKQLSRATNNNSILQKQQLELMDTVHNLISLCTKEGVLLKGGKREEEKPFRDCADVYQAGFNKSGIYTIYFNNMPEPKKVFCNMDVNGGGWTVIQHREDGSLDFQRGWKEYKMGFGNPSGEYWLGNEFIFAITSQRQYMLRIELMDWEGNRAYSQYDRFHIGNEKQNYRLYLKGHTGTAGKQSSLILHGADFSTKDADNDNCMCKCALMLTGGWWFDACGPSNLNGMFYTAGQNHGKLNGIKWHYFKGPSYSLRSTTMMIRPLDF
notes: Unpurified activity in concentrated conditioned medium; also called C2C12-ras 10xCCM
fold enhancement over background of the TIE-2 specific binding signal [1]: 4 fold
binding result [2]: no binding (tested: excess)
TIE-2 tyrosine phosphorylation in ABAE cells (immunoprecipitation and Western blot) [3]: 100 fold
